Where a chain is given by its changes, count along the chain named.
B1: Antibody 1.52.90-1 (antibody, V domains shown)
VH: QVQLLQSGAAVTKPGASVRVSCEASGYNIRDYFIHWWRQAPGQGLQWVGWINPKTGQPNNPRQFQGRVSLTRHASFDFDTFSFYMDLKALRSDDTAVYFCARQRSDYWDFDVWGSGTQVTVSS
VL: DIQMTQSPSSLSASVGDRATITCQANGYLNWYQQRRGKAPKLLIYDGSKLERGVPSRFSGSRWGQEYNLTISSLQPEDIATYFCQVYEFFGPGTRLDLKR
B2: 1.1.118-1 (antibody, human IgG1, kappa, V domains shown)
VH: B1 VH with F76W
VL: B1 VL with N68I
B3: 3.1.15-1 (antibody, human IgG1, kappa, V domains shown)
VH: B1 VH with F76W
VL: B1 VL with S14R, R18T, S56A, S61R, N68T, S72N, S73N, I79V
B4: 2.2.18-1 (antibody, human IgG1, kappa, V domains shown)
VH: B1 VH with Q3H, L5S, N28K, Y32H, F76W, L90V, V97I
VL: B1 VL with S14R, S56A, N68H, I79V
B5: 2.2.13-1 (antibody, human IgG1, kappa, V domains shown)
VH: B1 VH with Q3H, L5S, N28K, Y32H, F76W, L90V, V97I
VL: B1 VL with S14R, S56A, N68I, I79V
B6: 3.1.13-1 (antibody, human IgG1, kappa, V domains shown)
VH: B1 VH with F76W
VL: B1 VL with S14R, S56A, N68I, I79V
B7: 2.2.17-1 (antibody, human IgG1, kappa, V domains shown)
VH: B1 VH with Q3H, L5S, N28K, Y32H, F76W, L90V, V97I
VL: B1 VL with S14R, R18T, S56A, S61R, N68H, S72N, S73N, I79V
B8: 1.1.104-1 (antibody, human IgG1, kappa, V domains shown)
VH: B1 VH with F76W
VL: B1 VL with R18T, S61R, N68T, S72N, S73N
B9: 1.1.78-1 (antibody, human IgG1, kappa, V domains shown)
VH: B1 VH with F76W
VL: B1 VL with R18T, S61R, N68H, S72N, S73N
B10: 2.3.15-1 (antibody, human IgG1, kappa, V domains shown)
VH: B1 VH with Q3H, L5S, F76W, L90V, V97I
VL: B1 VL with S14R, R18T, S56A, S61R, N68T, S72N, S73N, I79V
B11: 2.2.7-1 (antibody, human IgG1, kappa, V domains shown)
VH: B1 VH with Q3H, L5S, N28K, Y32H, F76W, L90V, V97I
VL: B1 VL with S14R, S56A, N68T, I79V
B12: 1.1.119-1 (antibody, human IgG1, kappa, V domains shown)
VH: B1 VH with F76W
VL: B1 VL with N68T
B13: 3.1.18-1 (antibody, human IgG1, kappa, V domains shown)
VH: B1 VH with F76W
VL: B1 VL with S14R, S56A, N68H, I79V
B14: 3.1.7-1 (antibody, human IgG1, kappa, V domains shown)
VH: B1 VH with F76W
VL: B1 VL with S14R, S56A, N68T, I79V
B15: 2.2.15-1 (antibody, human IgG1, kappa, V domains shown)
VH: B1 VH with Q3H, L5S, N28K, Y32H, F76W, L90V, V97I
VL: B1 VL with S14R, R18T, S56A, S61R, N68T, S72N, S73N, I79V
B16: 2.3.7-1 (antibody, human IgG1, kappa, V domains shown)
VH: B1 VH with Q3H, L5S, F76W, L90V, V97I
VL: B1 VL with S14R, S56A, N68T, I79V
B17: 3.1.17-1 (antibody, human IgG1, kappa, V domains shown)
VH: B1 VH with F76W
VL: B1 VL with S14R, R18T, S56A, S61R, N68H, S72N, S73N, I79V
B18: 2.3.18-1 (antibody, human IgG1, kappa, V domains shown)
VH: B1 VH with Q3H, L5S, F76W, L90V, V97I
VL: B1 VL with S14R, S56A, N68H, I79V
B19: 2.3.13-1 (antibody, human IgG1, kappa, V domains shown)
VH: B1 VH with Q3H, L5S, F76W, L90V, V97I
VL: B1 VL with S14R, S56A, N68I, I79V
B20: 2.3.17-1 (antibody, human IgG1, kappa, V domains shown)
VH: B1 VH with Q3H, L5S, F76W, L90V, V97I
VL: B1 VL with S14R, R18T, S56A, S61R, N68H, S72N, S73N, I79V
B21: 1.1.102-1 (antibody, human IgG1, kappa, V domains shown)
VH: B1 VH with F76W
VL: B1 VL with N68H

Target: 152 patient-derived subtype B viruses obtained from pre-ART plasma
Assay: cell-based or functional assay

Row | Binder | Breadth (% viruses neutralized with an IC95 ≤ 50 µg/mL) | Geomean IC95 | Median IC95
1 | B1 | 78% | 4.56 µg/mL | 4.42 µg/mL

Target: HIV-1 envelope glycoprotein gp120 of virus 7141 (HIV-1)
Assay: cell-based or functional assay

Row | Binder | neutralization IC50
2 | B2 | 20.2 µg/mL
3 | B3 | 9.1 µg/mL
4 | B4 | 5.04 µg/mL
5 | B5 | 3.8 µg/mL
6 | B6 | 13.2 µg/mL
7 | B7 | 6.28 µg/mL
8 | B8 | 5.13 µg/mL
9 | B9 | 29.5 µg/mL
10 | B10 | 5.93 µg/mL
11 | B11 | 1.58 µg/mL
12 | B12 | 6.92 µg/mL
13 | B13 | > 9.8 µg/mL
14 | B14 | 5.65 µg/mL
15 | B15 | 1.99 µg/mL
16 | B16 | 5.08 µg/mL
17 | B17 | 25.5 µg/mL
18 | B18 | > 23 µg/mL
19 | B19 | 15.5 µg/mL
20 | B20 | 31.3 µg/mL
21 | B21 | 22.7 µg/mL

Target: HIV-1 envelope glycoprotein gp120 of virus 92US727 (HIV-1)
Assay: cell-based or functional assay

Row | Binder | neutralization IC50
22 | B2 | > 50 µg/mL
23 | B3 | > 33 µg/mL
24 | B4 | > 34 µg/mL
25 | B5 | > 50 µg/mL
26 | B6 | > 21 µg/mL
27 | B7 | > 50 µg/mL
28 | B8 | > 50 µg/mL
29 | B9 | > 50 µg/mL
30 | B10 | > 50 µg/mL
31 | B11 | > 50 µg/mL
32 | B12 | > 50 µg/mL
33 | B13 | > 9.8 µg/mL
34 | B14 | > 50 µg/mL
35 | B15 | > 50 µg/mL
36 | B16 | > 50 µg/mL
37 | B17 | > 50 µg/mL
38 | B18 | > 23 µg/mL
39 | B19 | > 38 µg/mL
40 | B20 | > 50 µg/mL
41 | B21 | > 50 µg/mL

Target: HIV-1 envelope glycoprotein gp120 of virus VS001 (HIV-1)
Assay: cell-based or functional assay

Row | Binder | neutralization IC50
42 | B2 | 2.4 µg/mL
43 | B3 | 0.49 µg/mL
44 | B4 | 2.51 µg/mL
45 | B5 | 1.48 µg/mL
46 | B6 | 0.56 µg/mL
47 | B7 | 4.38 µg/mL
48 | B8 | 0.45 µg/mL
49 | B9 | 3.3 µg/mL
50 | B10 | 0.85 µg/mL
51 | B11 | 0.27 µg/mL
52 | B12 | 0.39 µg/mL
53 | B13 | 3.52 µg/mL
54 | B14 | 0.3 µg/mL
55 | B15 | 0.37 µg/mL
56 | B16 | 0.47 µg/mL
57 | B17 | 2.21 µg/mL
58 | B18 | 2.37 µg/mL
59 | B19 | 1.5 µg/mL
60 | B20 | 4.54 µg/mL
61 | B21 | 3 µg/mL

Source: patent US20240034774A1
